These results are taken from patent US20090068637A1.

Assay [1] concerns the target HA of H5N1 virus strain A2 (avian influenza virus H5N1). Put plainly: cell-based or functional assay.
For assay [2], the target named is HA of H5N1 virus strain A1 (avian influenza virus H5N1). The experiment in a line: cell-based or functional assay.
In assay [3] the target is HA of H5N1 virus strain F3 (avian influenza virus H5N1). The experiment in a line: cell-based or functional assay.
Assay [4] has as its target HA of H5N1 virus strain B4 (avian influenza virus H5N1). Put plainly: cell-based or functional assay.
Assay [5] concerns the target HA of H5N1 virus strain B6 (avian influenza virus H5N1). Put plainly: cell-based or functional assay.
For assay [6], the target named is HA of H5N1 virus strain H2 (avian influenza virus H5N1). The experiment in a line: cell-based or functional assay.
The target of assay [7] is HA of H5N1 virus strain C2 (avian influenza virus H5N1). Put plainly: cell-based or functional assay.
Assay [8] deals with HA of H5N1 virus strain A7 (avian influenza virus H5N1). Put plainly: cell-based or functional assay.
The target in assay [9] is HA of H5N1 virus strain G1 (avian influenza virus H5N1). The experiment in a line: cell-based or functional assay.
In assay [10] the target is HA of H5N1 virus strain E2 (avian influenza virus H5N1). Put plainly: cell-based or functional assay.
The target of assay [11] is HA of H5N1 virus strain A8 (avian influenza virus H5N1). Put plainly: cell-based or functional assay.
Assay [12] has as its target HA of H5N1 virus strain A3 (avian influenza virus H5N1). The experiment in a line: cell-based or functional assay.
The target of assay [13] is HA of H5N1 virus strain C1 (avian influenza virus H5N1). The experiment in a line: cell-based or functional assay.
Assay [14] has as its target HA of H5N1 virus strain D1 (avian influenza virus H5N1). Put plainly: cell-based or functional assay.
Assay [15] addresses HA of H5N1 virus strain B8 (avian influenza virus H5N1). The experiment in a line: cell-based or functional assay.
Assay [16] concerns the target HA of H5N1 virus strain B7 (avian influenza virus H5N1). The experiment in a line: cell-based or functional assay.
Assay [17] concerns the target HA of H5N1 virus strain A4 (avian influenza virus H5N1). Put plainly: cell-based or functional assay.
Assay [18] addresses HA of H5N1 virus strain F2 (avian influenza virus H5N1). The experiment in a line: cell-based or functional assay.
Assay [19] concerns the target HA of H5N1 virus strain B1 (avian influenza virus H5N1). Put plainly: cell-based or functional assay.
For assay [20], the target named is HA of H5N1 virus strain A6 (avian influenza virus H5N1). Put plainly: cell-based or functional assay.
Assay [21] addresses HA of H5N1 virus strain H1 (avian influenza virus H5N1). The experiment in a line: cell-based or functional assay.
Assay [22] deals with HA of H5N1 virus strain C3 (avian influenza virus H5N1). The experiment in a line: cell-based or functional assay.
For assay [23], the target named is HA of H5N1 virus strain E1 (avian influenza virus H5N1). Put plainly: cell-based or functional assay.
In assay [24] the target is 7aa peptide 8H5E (NSGPWLT). The experiment in a line: phage ELISA: mAb coated at 5 ug/ml, phage 1:1000, anti-M13/HRP. A general note: ELISA stands for enzyme-linked immunosorbent assay.
Assay [25] has as its target 7aa peptide 8H5A (HGMLPVY). The assay is described as above.
Assay [26] deals with H5 virus strains (thirty-four strains of H5N1 viruses). The experiment in a line: cell-based or functional assay.
The target of assay [27] is HA of H5N1 virus strain D2 (avian influenza virus H5N1). The experiment in a line: cell-based or functional assay.
Assay [28] addresses HA of H5N1 virus strain A5 (avian influenza virus H5N1). The experiment in a line: cell-based or functional assay.
Assay [29] addresses HA of H5N1 virus strain B2 (avian influenza virus H5N1). The experiment in a line: cell-based or functional assay.
The target in assay [30] is HA of H5N1 virus strain B5 (avian influenza virus H5N1). Put plainly: cell-based or functional assay.
In assay [31] the target is HA of H5N1 virus strain B3 (avian influenza virus H5N1). Put plainly: cell-based or functional assay.
The target of assay [32] is hemagglutinin of subtype H5 avian influenza virus (strain not stated) (avian influenza virus subtype H5).
In assay [33] the target is HA of virus strain BhGs/QH/15/05 (avian influenza virus). The experiment in a line: cell-based or functional assay.
Assay [34] concerns the target HA of virus strain CP Heron/HK/18/05 (avian influenza virus). The experiment in a line: cell-based or functional assay.
Assay [35] deals with HA of virus strain CK/HK/213/03 (avian influenza virus). Put plainly: cell-based or functional assay.
In assay [36] the target is HA of virus strain DK/IDN/MS/04 (avian influenza virus). Put plainly: cell-based or functional assay.
Assay [37] addresses HA of virus strain CK/IDN/2A/04 (avian influenza virus). The experiment in a line: cell-based or functional assay.
Assay [38] addresses HA of virus strain Oriental Magpie Robin/HK/366/2006 (avian influenza virus). The experiment in a line: cell-based or functional assay.

Bounds are passed on as bounds.

B1: 10F7 chimeric antibody (antibody, V domains shown)
VH: QVQLQQPGAELVKPGASVKLSCKASGYTFTSYWMHWVKQRPGQGLEWIGEIDPSDSYTNYNQKFKGKATLTVDKSSSTAYMQLSSLTSEDSAVYYCARGGTGDFHYAMDYWGQGTSVTVSS
VL: DILMTQSPSSMSVSLGDTVSITCHASQGISSNIGWLQQKPGKSFKGLIYHGTNLEDGVPSRFSGSGSGADYSLTISSLESEDFADYYCVQYVQFPYTFGGGTKLEIKR
For the molecule B1, the HI test result in assay [1] was 7 n; in [2] it was 6.5 n; in assay [3], greater than 8 n; in assay [4], 6 n; in assay [5], 6 n; in assay [6], 8 n. Moreover, the HI test result is 6 n in assay [7]; 5.5 n in [8]; 6.5 n in assay [9]; greater than 8 n in assay [10]; 5.5 n in assay [11]; 6.5 n in assay [12]. Further, the HI test result is greater than 8 n in assay [13]; 2.5 n in assay [14]; 4.5 n in [15]; 7 n in assay [16]; 7 n in assay [17]; 2.5 n in [18]. Besides, the HI test result in [19] is greater than 8 n; in [20], 5 n; in [21] it was 5.5 n; in [22], 2.5 n; in [23], 6 n.

B2: monoclonal antibody 8H5 (antibody, V domains shown)
VH: QVQLQQSGAELMKPGASVKISCKATGYTFSNYWIEWIKQRPGHGLEWIGEILPGSDRTNYNGKFKGKATFTADTSSNTAHMQLSSLTSEDSAVYYCANRYDGYYFGLDYWGQGTSVAVSSA
VL: EIVLTQSPAIMSASLGEKVTMSCRASSSVNFVYWYQQRSDASPKLLIYYSSNLAPGVPPRFSGSGSGNSYSLTISGLEGEDAATYYCQHFTSSPYTFGGGTNLEIKR
For B2, the figures for the ELISA reading in assay [24] and in assay [25] were 0.25 and 0.559, respectively. Further, in assay [26], the HI assay: positive number/total virus number (of 34 strains) came out at 34.

B3: 8H5 single chain antibody (scFv)
scFv: QVQLQQSGAELMKPGASVKISCKATGYTFSNYWIEWIKQRPGHGLEWIGEILPGSDRTNYNGKFKGKATFTADTSSNTAHMQLSSLTSEDSAVYYCANRYDGYYFGLDYWGQGTSVAVSSAGGGGSEIVLTQSPAIMSASLGEKVTMSCRASSSVNFVYWYQQRSDASPKLLIYYSSNLAPGVPPRFSGSGSGNSYSLTISGLEGEDAATYYCQHFTSSPYTFGGGTNLEIKR
On to B3, for which the HI titer (n) (n (dilution 2^n)) in [1] is 4.5; in [27], 2; in assay [2] it was 3.5; in assay [3], 0; in [4], 5; in assay [5], 3.5. In addition, the HI titer (n) (n (dilution 2^n)) worked out at 0 in assay [6]; 1 in assay [7]; 3 in [8]; 4 in assay [28]; 0 in [9]; 0 in assay [10]. The HI titer (n) (n (dilution 2^n)) in assay [11] is 2.5; in [12], 3.5; in assay [14] it was 2.5; in [15] it was 3; in [29], 0; in assay [16] it was 4. Besides, the HI titer (n) (n (dilution 2^n)) in assay [18] was determined as 0; in assay [19], 4; in assay [20], 3; in [21], 0; in [22] it was 0; in assay [30], 0. Also, the HI titer (n) (n (dilution 2^n)) in assay [31] stood at 5; in assay [23], 0. In assay [32], this molecule registered an average value of the testing wells (ELISA reading) of 0.597.

B4: 10F7 single chain antibody (scFv)
scFv: QVQLQQPGAELVKPGASVKLSCKASGYTFTSYWMHWVKQRPGQGLEWIGEIDPSDSYTNYNQKFKGKATLTVDKSSSTAYMQLSSLTSEDSAVYYCARGGTGDFHYAMDYWGQGTSVTVSSGGGGSDILMTQSPSSMSVSLGDTVSITCHASQGISSNIGWLQQKPGKSFKGLIYHGTNLEDGVPSRFSGSGSGADYSLTISSLESEDFADYYCVQYVQFPYTFGGGTKLEIKR
Take B4: the HI titer (n) (n (dilution 2^n)) in assay [1] is greater than 8; in assay [27], 2.5; in [2] it was greater than 8; in assay [3], 0; in assay [4], greater than 8; in [5] it was 7. Moreover, the HI titer (n) (n (dilution 2^n)) was 0 in assay [6]; 2 in [7]; 6.5 in assay [8]; greater than 8 in assay [28]; 0 in assay [9]; 0 in assay [10]. Further, the HI titer (n) (n (dilution 2^n)) is 6 in assay [11]; greater than 8 in assay [12]; 2.5 in assay [14]; 7 in [15]; 0 in assay [29]; 7 in [16]. For the same molecule, the HI titer (n) (n (dilution 2^n)) was 0 in assay [18]; 7 in assay [19]; 7.5 in assay [20]; less than 1 in assay [21]; 1 in assay [22]; 0 in [30]. Moreover, the HI titer (n) (n (dilution 2^n)) in assay [31] was greater than 8; in assay [23] it was 0. For the same molecule, the neutralization test: dilution of 10F7 scFv (fold dilution) is 16 in assay [33]; 8 in assay [34]; less than 1 in [35]; 16 in assay [36]; 32 in [37]; less than 1 in [38].
